# Experimental data as given in US20140087995A1 (published 2014).
# Numbered stars: 1 amine (or outer) side, 2 acyl side, 3 side chain; on linkers, the order of the positions; unused ones are H or OH. Bridge positions count the residues as written; N and C are the ends. Side chains are listed from the residue outwards. Ends that are not written are not given here. * marks the point of attachment. C20 diacid = O=C(O)CCCCCCCCCCCCCCCCCCC(=O)*; γGlu = O=C(O)[C@H](CCC(=O)[*:2])N[*:1]; AEEA = NCCOCCOCC(=O)O
# T1: human calcitonin receptor (human, UniProt P30988 25-474)
# T1 construct: whole, on cells; Used as cell membranes; also called hCTR; hCT
# T1 sequence (looked up): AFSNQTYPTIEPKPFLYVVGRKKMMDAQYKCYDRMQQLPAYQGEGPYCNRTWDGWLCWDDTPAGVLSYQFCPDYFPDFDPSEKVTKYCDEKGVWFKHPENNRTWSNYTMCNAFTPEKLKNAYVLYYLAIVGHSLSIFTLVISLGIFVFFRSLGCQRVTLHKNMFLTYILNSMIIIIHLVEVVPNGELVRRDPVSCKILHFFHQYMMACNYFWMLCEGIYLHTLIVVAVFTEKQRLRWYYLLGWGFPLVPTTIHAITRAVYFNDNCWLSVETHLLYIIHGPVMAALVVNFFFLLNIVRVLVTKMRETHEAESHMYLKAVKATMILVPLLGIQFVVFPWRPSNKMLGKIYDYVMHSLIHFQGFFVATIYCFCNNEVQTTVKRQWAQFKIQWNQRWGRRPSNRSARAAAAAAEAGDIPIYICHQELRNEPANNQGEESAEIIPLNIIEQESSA
# B1: N^ε1-[2-[2-[2-[[2-[2-[2-[[(4S)-4-carboxy-4-(19-carboxynonadecanoylamino)butanoyl]amino]ethoxy]ethoxy]acetyl]amino]ethoxy]ethoxy]acetyl]-[Arg17,Pro21,Pro27,Pro31 … (peptide)
# peptide: K([AEEA-AEEA-γGlu-C20 diacid])CNTATCATQRLANFLRHSSPNFGAIPSSTPVGSNTY-NH2
# modifications: disulfide 2-7; N-terminus assumed
# SMILES: CC[C@H](C)[C@H](NC(=O)[C@H](C)NC(=O)CNC(=O)[C@H](Cc1ccccc1)NC(=O)[C@H](CC(N)=O)NC(=O)[C@@H]1CCCN1C(=O)[C@H](CO)NC(=O)[C@H](CO)NC(=O)[C@H](Cc1c[nH]cn1)NC(=O)[C@H](CCCNC(=N)N)NC(=O)[C@H](CC(C)C)NC(=O)[C@H](Cc1ccccc1)NC(=O)[C@H](CC(N)=O)NC(=O)[C@H](C)NC(=O)[C@H](CC(C)C)NC(=O)[C@H](CCCNC(=N)N)NC(=O)[C@H](CCC(N)=O)NC(=O)[C@@H](NC(=O)[C@H](C)NC(=O)[C@@H]1CSSC[C@H](NC(=O)[C@@H](N)CCCCNC(=O)COCCOCCNC(=O)COCCOCCNC(=O)CC[C@H](NC(=O)CCCCCCCCCCCCCCCCCCC(=O)O)C(=O)O)C(=O)N[C@@H](CC(N)=O)C(=O)N[C@@H]([C@@H](C)O)C(=O)N[C@@H](C)C(=O)N[C@@H]([C@@H](C)O)C(=O)N1)[C@@H](C)O)C(=O)N1CCC[C@H]1C(=O)N[C@@H](CO)C(=O)N[C@@H](CO)C(=O)N[C@H](C(=O)N1CCC[C@H]1C(=O)N[C@H](C(=O)NCC(=O)N[C@@H](CO)C(=O)N[C@@H](CC(N)=O)C(=O)N[C@H](C(=O)N[C@@H](Cc1ccc(O)cc1)C(N)=O)[C@@H](C)O)C(C)C)[C@@H](C)O
# notes: also called compound 96
# B2: N^ε1-[2-[2-[2-[[(4S)-4-carboxy-4-(19-carboxynonadecanoylamino)butanoyl]amino]ethoxy]ethoxy]acetyl]-[Ala14,Arg17,Pro21,Pro27,Pro31]-h-amylin (peptide)
# peptide: K([AEEA-γGlu-C20 diacid])CNTATCATQRLAAFLRHSSPNFGAIPSSTPVGSNTY-NH2
# modifications: disulfide 2-7; N-terminus assumed
# SMILES: CC[C@H](C)[C@H](NC(=O)[C@H](C)NC(=O)CNC(=O)[C@H](Cc1ccccc1)NC(=O)[C@H](CC(N)=O)NC(=O)[C@@H]1CCCN1C(=O)[C@H](CO)NC(=O)[C@H](CO)NC(=O)[C@H](Cc1c[nH]cn1)NC(=O)[C@H](CCCNC(=N)N)NC(=O)[C@H](CC(C)C)NC(=O)[C@H](Cc1ccccc1)NC(=O)[C@H](C)NC(=O)[C@H](C)NC(=O)[C@H](CC(C)C)NC(=O)[C@H](CCCNC(=N)N)NC(=O)[C@H](CCC(N)=O)NC(=O)[C@@H](NC(=O)[C@H](C)NC(=O)[C@@H]1CSSC[C@H](NC(=O)[C@@H](N)CCCCNC(=O)COCCOCCNC(=O)CC[C@H](NC(=O)CCCCCCCCCCCCCCCCCCC(=O)O)C(=O)O)C(=O)N[C@@H](CC(N)=O)C(=O)N[C@@H]([C@@H](C)O)C(=O)N[C@@H](C)C(=O)N[C@@H]([C@@H](C)O)C(=O)N1)[C@@H](C)O)C(=O)N1CCC[C@H]1C(=O)N[C@@H](CO)C(=O)N[C@@H](CO)C(=O)N[C@H](C(=O)N1CCC[C@H]1C(=O)N[C@H](C(=O)NCC(=O)N[C@@H](CO)C(=O)N[C@@H](CC(N)=O)C(=O)N[C@H](C(=O)N[C@@H](Cc1ccc(O)cc1)C(N)=O)[C@@H](C)O)C(C)C)[C@@H](C)O
# notes: also called compound 72
# B3: N^ε1-[2-[2-[2-[[2-[2-[2-[[(4S)-4-carboxy-4-(19-carboxynonadecanoylamino)butanoyl]amino]ethoxy]ethoxy]acetyl]amino]ethoxy]ethoxy]acetyl]-[Arg17,Pro21,Pro27,Pro34 … (peptide)
# peptide: K([AEEA-AEEA-γGlu-C20 diacid])CNTATCATQRLANFLRHSSPNFGAIPSSTNVGPNTY-NH2
# modifications: disulfide 2-7; N-terminus assumed
# SMILES: CC[C@H](C)[C@H](NC(=O)[C@H](C)NC(=O)CNC(=O)[C@H](Cc1ccccc1)NC(=O)[C@H](CC(N)=O)NC(=O)[C@@H]1CCCN1C(=O)[C@H](CO)NC(=O)[C@H](CO)NC(=O)[C@H](Cc1c[nH]cn1)NC(=O)[C@H](CCCNC(=N)N)NC(=O)[C@H](CC(C)C)NC(=O)[C@H](Cc1ccccc1)NC(=O)[C@H](CC(N)=O)NC(=O)[C@H](C)NC(=O)[C@H](CC(C)C)NC(=O)[C@H](CCCNC(=N)N)NC(=O)[C@H](CCC(N)=O)NC(=O)[C@@H](NC(=O)[C@H](C)NC(=O)[C@@H]1CSSC[C@H](NC(=O)[C@@H](N)CCCCNC(=O)COCCOCCNC(=O)COCCOCCNC(=O)CC[C@H](NC(=O)CCCCCCCCCCCCCCCCCCC(=O)O)C(=O)O)C(=O)N[C@@H](CC(N)=O)C(=O)N[C@@H]([C@@H](C)O)C(=O)N[C@@H](C)C(=O)N[C@@H]([C@@H](C)O)C(=O)N1)[C@@H](C)O)C(=O)N1CCC[C@H]1C(=O)N[C@@H](CO)C(=O)N[C@@H](CO)C(=O)N[C@H](C(=O)N[C@@H](CC(N)=O)C(=O)N[C@H](C(=O)NCC(=O)N1CCC[C@H]1C(=O)N[C@@H](CC(N)=O)C(=O)N[C@H](C(=O)N[C@@H](Cc1ccc(O)cc1)C(N)=O)[C@@H](C)O)C(C)C)[C@@H](C)O
# notes: also called compound 98
# B4: N^ε1-[2-[2-[2-[[(4S)-4-carboxy-4-(19-carboxynonadecanoylamino)butanoyl]amino]ethoxy]ethoxy]acetyl]-[Arg14,Arg17,Pro21,Pro27,Pro31]-h-amylin (peptide)
# peptide: K([AEEA-γGlu-C20 diacid])CNTATCATQRLARFLRHSSPNFGAIPSSTPVGSNTY-NH2
# modifications: disulfide 2-7; N-terminus assumed
# SMILES: CC[C@H](C)[C@H](NC(=O)[C@H](C)NC(=O)CNC(=O)[C@H](Cc1ccccc1)NC(=O)[C@H](CC(N)=O)NC(=O)[C@@H]1CCCN1C(=O)[C@H](CO)NC(=O)[C@H](CO)NC(=O)[C@H](Cc1c[nH]cn1)NC(=O)[C@H](CCCNC(=N)N)NC(=O)[C@H](CC(C)C)NC(=O)[C@H](Cc1ccccc1)NC(=O)[C@H](CCCNC(=N)N)NC(=O)[C@H](C)NC(=O)[C@H](CC(C)C)NC(=O)[C@H](CCCNC(=N)N)NC(=O)[C@H](CCC(N)=O)NC(=O)[C@@H](NC(=O)[C@H](C)NC(=O)[C@@H]1CSSC[C@H](NC(=O)[C@@H](N)CCCCNC(=O)COCCOCCNC(=O)CC[C@H](NC(=O)CCCCCCCCCCCCCCCCCCC(=O)O)C(=O)O)C(=O)N[C@@H](CC(N)=O)C(=O)N[C@@H]([C@@H](C)O)C(=O)N[C@@H](C)C(=O)N[C@@H]([C@@H](C)O)C(=O)N1)[C@@H](C)O)C(=O)N1CCC[C@H]1C(=O)N[C@@H](CO)C(=O)N[C@@H](CO)C(=O)N[C@H](C(=O)N1CCC[C@H]1C(=O)N[C@H](C(=O)NCC(=O)N[C@@H](CO)C(=O)N[C@@H](CC(N)=O)C(=O)N[C@H](C(=O)N[C@@H](Cc1ccc(O)cc1)C(N)=O)[C@@H](C)O)C(C)C)[C@@H](C)O
# notes: also called compound 64
# Molecular target: T1, human calcitonin receptor
# Experiment: ratio of hCTR IC50 to hAmylin-R IC50 (reference: human amylin receptor)
# Method: The resulting pellet was resuspended, homogenized and centrifuged (20.000 rpm, 15 min) in a buffer containing 20 mM Na-HEPES and 0.1 mM EDTA (pH 7.4, buffer 2). The resulting pellet was resuspended in buffer 2 and protein concentration was measured (BCA protein Assay, Pierce). The homogenate was kept cold during the whole procedure. The membranes were kept at −80° C. until use. The assay was performed in a 384 well Optiplate (PerkinElmer) in a total volume of 40 ul. Membranes were mixed with SPA beads. Final concentration of membranes 35 ng/μL final and SPA beads was 0.05 mg/well. Test-compounds were dissolved in DMSO and further diluted in assay buffer (50 mM Hepes, pH 7.4, 1 mM CaCl2, 5 mM MgCl₂, 0.1% OA and 0.02% Tween20). […] The final mixture was incubated with shaking at 400 rpm for 120 min at 25° C. prior to centrifugation (1500 rpm, 10 min). Samples were analyzed on TopCounter™ (Packard). The IC₅₀ was calculated using (one site binding competition analysis) GraphPad Prism5 as a measure of receptor affinity.
# Membranes were prepared in the following way; the cells were rinsed with PBS and incubated with Versene for approximately 5 min before harvesting. The cells were flushed with PBS and the cell-suspension was centrifuged for 5 min at 1000 rpm. Cells were homogenized (Ultrathurrax) in a buffer containing 20 mM Na-HEPES and 10 mM EDTA (pH 7.4) and centrifuged at 20.000 rpm for 15 min. The resulting pellet was resuspended, homogenized and centrifuged (20.000 rpm, 15 min) in a buffer containing 20 mM Na-HEPES and 0.1 mM EDTA (pH 7.4, buffer 2). The resulting pellet was resuspended in buffer 2 and protein concentration was measured (BCA protein Assay, Pierce). The homogenate was kept cold during the whole procedure. The membranes were kept at −80° C. until use. Assay was performed in a 384 well Optiplate (PerkinElmer) in a total volume of 40 ul. Membranes were mixed with SPA beads.
row,Ratio hCT/hAmylin binding,Binder
1,79.6,B1
2,247,B2
3,74.1,B3
4,126,B4

# Molecular target: T1, human calcitonin receptor
# Experiment: SPA competition on BHK cell membranes, 125I-calcitonin as radioligand (Assay VII)
# Method: Membranes were prepared in the following way; the cells were rinsed with PBS and incubated with Versene for approximately 5 min before harvesting. The cells were flushed with PBS and the cell-suspension was centrifuged for 5 min at 1000 rpm. Cells were homogenized (Ultrathurrax) in a buffer containing 20 mM Na-HEPES and 10 mM EDTA (pH 7.4) and centrifuged at 20.000 rpm for 15 min. The resulting pellet was resuspended, homogenized and centrifuged (20.000 rpm, 15 min) in a buffer containing 20 mM Na-HEPES and 0.1 mM EDTA (pH 7.4, buffer 2). The resulting pellet was resuspended in buffer 2 and protein concentration was measured (BCA protein Assay, Pierce). The homogenate was kept cold during the whole procedure. The membranes were kept at −80° C. until use. Assay was performed in a 384 well Optiplate (PerkinElmer) in a total volume of 40 ul. Membranes were mixed with SPA beads. Final concentration of membranes 35 ng/μL final and Final concentration of SPA beads was 0.05 mg/well. Test-compounds were dissolved in DMSO and further diluted in assay buffer (50 mM Hepes, pH 7.4, 1 mM CaCl2, 5 mM MgCl₂, 0.1% OA and 0.02% Tween20). […] The final mixture was incubated for 120 min with shaking at 400 rpm at 25° C. prior to centrifugation (1500 rpm, 10 min). Samples were analyzed on TopCounter™ (Packard). The […] was calculated using (one site binding competition analysis) GraphPad Prism5 as a measure of receptor affinity.
row,IC50 [nM],Binder
1,13.2,B1
2,42.4,B2
3,6.74,B3
4,56,B4
